B1: recombinant GST-tagged ectodomain of BST2 (residues 47 to 159) (domain or fragment)
chain: KANSEACRDGLRAVMECRNVTHLLQQELTEAQKGFQDVEAQAATCNHTVMALMASLDAEKAQGQKKVEELEGEITTLNHKLQDASAEVERLRRENQVLSVRIADKKYYPSSQD
notes: BST2/Tetherin (CD317), human, extracellular domain, residues 47 to 159; a region common to the short and the long BST2 isoforms; Cloned into the pBADM30 expression vector as a His-tagged GST-N-terminus fusion protein; also called GST-BST2; BST2/Tetherin; not shown: GST, N-terminal, kept

Legend:
[1] = target: ILT7 on the ILT7+ NFAT-GFP reporter mouse cell line (CT550) (human) (UniProt P59901)
Sequence of ILT7 on the ILT7+ NFAT-GFP reporter mouse cell line (CT550) (human) (P59901 24-499): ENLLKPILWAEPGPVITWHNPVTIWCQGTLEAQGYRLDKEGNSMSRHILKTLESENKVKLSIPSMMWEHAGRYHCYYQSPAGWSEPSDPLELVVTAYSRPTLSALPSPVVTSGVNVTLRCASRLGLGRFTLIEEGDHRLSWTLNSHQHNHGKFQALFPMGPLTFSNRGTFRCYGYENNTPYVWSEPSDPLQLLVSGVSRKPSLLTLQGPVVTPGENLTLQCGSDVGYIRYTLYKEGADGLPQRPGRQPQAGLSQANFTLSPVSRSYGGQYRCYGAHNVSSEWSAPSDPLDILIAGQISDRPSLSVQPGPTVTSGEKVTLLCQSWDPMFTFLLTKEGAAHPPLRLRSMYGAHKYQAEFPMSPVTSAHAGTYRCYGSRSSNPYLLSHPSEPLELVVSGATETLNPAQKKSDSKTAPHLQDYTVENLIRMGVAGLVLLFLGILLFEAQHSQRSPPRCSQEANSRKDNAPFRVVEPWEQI

[2] = target: T1, baculovirus-expressed soluble ILT7 (residues 24 to 435) (human, UniProt P59901 24-435); experiment: SPR; Biacore 3000; GST-BST2 covalently immobilised on a CM5 chip by amine coupling (6550 RU); bacILT7 serially diluted and passed over at 10 ul/min; running buffer HBS-PE (10 mM HEPES pH 7.5, 150 mM NaCl, 3 mM EDTA, 0.005% Tween-20); GST-coated reference cell subtracted; 1:1 Langmuir model, local Rmax; details: both partners purified
T1 construct: immunoglobulin-like transcript 7 (ILT7, LILRA4, CD85g), human, residues 24 to 435, from a synthetic codon-optimized gene; Cloned into the transfer vector pFL and transposed into the EMBacY bacmid; also called bacILT7; LILRA4
T1 sequence (P59901 24-435): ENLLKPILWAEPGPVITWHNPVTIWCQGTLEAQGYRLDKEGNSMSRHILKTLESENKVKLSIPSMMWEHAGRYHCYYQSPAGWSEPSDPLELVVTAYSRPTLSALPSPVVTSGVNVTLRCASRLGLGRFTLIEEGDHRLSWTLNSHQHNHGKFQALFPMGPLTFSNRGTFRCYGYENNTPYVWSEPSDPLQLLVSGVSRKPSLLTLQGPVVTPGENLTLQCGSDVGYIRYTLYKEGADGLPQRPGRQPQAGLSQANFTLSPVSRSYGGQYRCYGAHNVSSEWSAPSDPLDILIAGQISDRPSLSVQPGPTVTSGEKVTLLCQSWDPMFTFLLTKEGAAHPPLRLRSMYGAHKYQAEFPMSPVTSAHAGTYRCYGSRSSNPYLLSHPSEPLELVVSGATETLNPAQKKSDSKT

Row | Molecule | percentage of NFAT-GFP positive ILT7+ reporter cells after co-culture with BST2-expressing HEK293T cells (no HIV) [1] [%] | percentage of NFAT-GFP positive ILT7+ reporter cells after co-culture with BST2-expressing HEK293T cells producing WT HIV (Vpu present) [1] [%] | percentage of NFAT-GFP positive ILT7+ reporter cells after co-culture with BST2-expressing HEK293T cells producing dU HIV (no Vpu) [1] [%] | Kd [2] [µM] | koff [2] [s⁻¹] | kon [2] [M⁻¹ s⁻¹]
1 | WT BST2 expressed on HEK293T cells (from UniProt Q10589 1-161) (natural protein) | 99 | 74 | 48 | – | – | –
2 | B1 | – | – | – | 2.33 | 0.00308 | 1250
